Results on 2 molecules are retold here after publication PMC4579020, “Reassembly and co-crystallization of a family 9 processive endoglucanase from its component parts: structural and functional significance of the intermodular linker” (PeerJ, 2015).

The target of assay [1] is GH9 catalytic module of Cel9I from Clostridium thermocellum, N-terminally His-tagged (Clostridium thermocellum).
Assay [2] deals with T1, GH9 catalytic module of Cel9I from Clostridium thermocellum, untagged (Clostridium thermocellum).
T1 chain: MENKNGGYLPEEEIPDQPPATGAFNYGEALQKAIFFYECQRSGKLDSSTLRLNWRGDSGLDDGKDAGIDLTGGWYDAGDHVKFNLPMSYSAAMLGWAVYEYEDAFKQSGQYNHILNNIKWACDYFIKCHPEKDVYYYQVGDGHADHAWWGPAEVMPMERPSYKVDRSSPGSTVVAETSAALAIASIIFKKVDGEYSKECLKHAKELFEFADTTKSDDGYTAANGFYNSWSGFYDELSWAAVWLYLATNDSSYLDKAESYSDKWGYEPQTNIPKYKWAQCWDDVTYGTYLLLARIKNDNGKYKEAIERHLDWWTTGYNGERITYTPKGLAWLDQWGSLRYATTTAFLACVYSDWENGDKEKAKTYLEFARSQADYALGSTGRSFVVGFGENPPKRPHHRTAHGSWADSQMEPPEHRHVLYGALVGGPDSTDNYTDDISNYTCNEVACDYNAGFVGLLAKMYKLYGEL
Briefly: ITC; VP-ITC, 298 K; about 300 µM CBM3c injected into 65 µM GH9; 50 mM Tris-HCl pH 7.5, 150 mM NaCl, 0.05% sodium azide; one binding site model; CBM3c concentrations corrected to give a stoichiometry of one; two titrations. The note with it: both partners purified.

The target of assay [3] is T2, CBM3c module of Cel9I with its adjacent N-terminal linker, C-terminally His-tagged (Clostridium thermocellum, UniProt Q02934 54-516).
T2 construct: Cloning is described in Burstein et al., 2009 and Gilad et al., 2003; also called CBM3cL; CBM3c with linker; source: E. coli BL21(DE3)RIL, purified (Ni-IDA); not shown: His tag, C-terminal, kept
T2 sequence: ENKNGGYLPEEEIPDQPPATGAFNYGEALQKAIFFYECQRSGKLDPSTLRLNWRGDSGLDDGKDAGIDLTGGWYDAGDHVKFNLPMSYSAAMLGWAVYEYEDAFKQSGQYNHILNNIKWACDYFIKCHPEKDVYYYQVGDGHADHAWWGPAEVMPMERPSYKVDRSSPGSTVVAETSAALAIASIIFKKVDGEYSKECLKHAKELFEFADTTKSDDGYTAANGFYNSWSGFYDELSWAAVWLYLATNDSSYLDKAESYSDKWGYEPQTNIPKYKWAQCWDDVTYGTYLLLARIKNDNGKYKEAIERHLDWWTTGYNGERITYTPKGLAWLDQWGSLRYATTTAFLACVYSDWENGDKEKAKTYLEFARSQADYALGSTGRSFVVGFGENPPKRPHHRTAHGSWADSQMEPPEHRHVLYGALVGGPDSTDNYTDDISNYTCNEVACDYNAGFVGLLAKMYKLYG
Described as above. The conditions noted are these: both partners purified.

B1: CBM3c module of Cel9I without the N-terminal linker, C-terminally His-tagged (domain or fragment)
chain: EVPEDEIFVEAGVNASGNNFIEIKAIVNNKSGWPARVCENLSFRYFINIEEIVNAGKSASDLQVSSSYNQGAKLSDVKHYKDNIYYVEVDLSGTKIYPGGQSAYKKEVQFRISAPEGTVFNPENDYSYQGLSAGTVVKSEYIPVYDAGVLVFGREP
modifications: one bound Ca2+ in the crystal. Limits are the crystallized untagged GH9 entity (466 aa, about 52 kDa as on SDS-PAGE). Paper residues 1-446 are entity 21-466 (offset +20, from Tyr440, Gly444 and end …)
The Kd is the equilibrium constant for the complex coming apart. High values mean weaker binding, low ones tighter binding. Regarding B1, the CMCase activity (reducing sugar released in 10 min, 333 K, pH 6.0) of 70 pmol His-tagged GH9 mixed with increasing amounts of CBM3cNL, relative to intact Cel9I set as 100% (% of intact Cel9I activity) in assay [1] came to 10. The same molecule registered a Kd in assay [2] of 290 to 430 nM.

B2: GH9 catalytic module of Cel9I from Clostridium thermocellum, untagged (domain or fragment)
chain: MENKNGGYLPEEEIPDQPPATGAFNYGEALQKAIFFYECQRSGKLDSSTLRLNWRGDSGLDDGKDAGIDLTGGWYDAGDHVKFNLPMSYSAAMLGWAVYEYEDAFKQSGQYNHILNNIKWACDYFIKCHPEKDVYYYQVGDGHADHAWWGPAEVMPMERPSYKVDRSSPGSTVVAETSAALAIASIIFKKVDGEYSKECLKHAKELFEFADTTKSDDGYTAANGFYNSWSGFYDELSWAAVWLYLATNDSSYLDKAESYSDKWGYEPQTNIPKYKWAQCWDDVTYGTYLLLARIKNDNGKYKEAIERHLDWWTTGYNGERITYTPKGLAWLDQWGSLRYATTTAFLACVYSDWENGDKEKAKTYLEFARSQADYALGSTGRSFVVGFGENPPKRPHHRTAHGSWADSQMEPPEHRHVLYGALVGGPDSTDNYTDDISNYTCNEVACDYNAGFVGLLAKMYKLYGEL
modifications: one bound Ca2+ in the crystal. Limits are the crystallized untagged GH9 entity (466 aa, about 52 kDa as on SDS-PAGE). Paper residues 1-446 are entity 21-466 (offset +20, from Tyr440, Gly444 and end …)
On to B2, for which, in assay [3], the Kd lay within 1300 to 2000 nM.
